The results in this text go back to paper PMC8748450.

In the test the target is apo-LgnD-C1-T1-C2 tridomain (truncated LgnD). Briefly: ITC; LgnA (125 µM) titrated into LgnD or truncated LgnD (25 µM), also into LgnB (concentrations for LgnB not told); thirteen 3 µL injections, 25 °C; one set binding model; MicroCal PEAQ-ITC.

For the substance “LgnA, type II thioesterase (TEII) orthologue (enzyme)”, the Kd is 1700 nM.
